Experimental data published in publication PMC11381880, “Action and cooperation in alginate degradation by three enzymes from the human gut bacterium Bacteroides eggerthii DSM 20697” (The Journal of Biological Chemistry, 2024).
Several values for one entry are separate records, joined by “and”; a condition that tells them apart may be missing. Identical values can stand only once.

Key:
[1] = test system: Asp102; assay: NMR; details: 25 °C; 25 mM NaCl; 20 mM HEPES (starting pH 7.2), pH adjusted with HCl/NaOH; Folded recombinant BeKdgF as purified, 0.26 mM, no substrate or ligand added; metal loading not given
[2] = test system: Asp110; assay: NMR; details: 25 °C; 25 mM NaCl; 20 mM HEPES (starting pH 7.2), pH adjusted with HCl/NaOH; Folded recombinant BeKdgF as purified, 0.26 mM, no substrate or ligand added; metal loading not given
[3] = test system: Glu13; assay: NMR; details: 25 °C; 25 mM NaCl; 20 mM HEPES (starting pH 7.2), pH adjusted with HCl/NaOH; Folded recombinant BeKdgF as purified, 0.26 mM, no substrate or ligand added; metal loading not given
[4] = test system: Glu66; assay: NMR; details: 25 °C; 25 mM NaCl; 20 mM HEPES (starting pH 7.2), pH adjusted with HCl/NaOH; Folded recombinant BeKdgF as purified, 0.26 mM, no substrate or ligand added; metal loading not given
[5] = test system: Asp21; assay: NMR; details: 25 °C; 25 mM NaCl; 20 mM HEPES (starting pH 7.2), pH adjusted with HCl/NaOH; Folded recombinant BeKdgF as purified, 0.26 mM, no substrate or ligand added; metal loading not given
[6] = test system: Glu114; assay: NMR; details: 25 °C; 25 mM NaCl; 20 mM HEPES (starting pH 7.2), pH adjusted with HCl/NaOH; Folded recombinant BeKdgF as purified, 0.26 mM, no substrate or ligand added; metal loading not given
[7] = test system: Glu17; assay: NMR; details: 25 °C; 25 mM NaCl; 20 mM HEPES (starting pH 7.2), pH adjusted with HCl/NaOH; Folded recombinant BeKdgF as purified, 0.26 mM, no substrate or ligand added; metal loading not given
[8] = molecular target: BeKdgF, KdgF-like metalloprotein from Bacteroides eggerthii DSM 20697 (Bacteroides eggerthii DSM 20697); assay: NMR 15N relaxation (rotational correlation time from T1/T2); 0.43 mM 13C-15N-labelled BeKdgF, 25 mM Na2HPO4 pH 7.2, 50 mM NaCl, 25 °C, 800 MHz
[9] = molecular target: BeKdgF, KdgF-like metalloprotein from Bacteroides eggerthii DSM 20697 (Bacteroides eggerthii DSM 20697); assay: SEC-MALS; BeKdgF at 1 mg/mL, 40 ul on Superdex 200 Increase 10/300 GL, 50 mM HEPES, 150 mM NaCl, pH 7.7, ice-cold buffer, 0.5 ml/min; DAWN8+ detector; equilibrium of tetramer and dimer
[10] = molecular target: T1, BeKdgF (Bacteroides eggerthii, UniProt A0A380Z821); assay: loss of absorbance at […] nm, Michaelis-Menten fit, spontaneous conversion subtracted; type: biochemical; details: 50 mM HEPES, 150 mM NaCl, pH 7.0; 20 nM enzyme, no metal added; saturation not achieved (estimate); substrate made from polyM by BePL17
T1 construct: gene DW701_08695; no signal peptide; theoretical mass 14,137 Da; locus tag BACEGG_03250 inferred from gene order in PUL BACEGG_03245-03254 (PL17 = BACEGG_03249)
T1 sequence (A0A380Z821 1-114): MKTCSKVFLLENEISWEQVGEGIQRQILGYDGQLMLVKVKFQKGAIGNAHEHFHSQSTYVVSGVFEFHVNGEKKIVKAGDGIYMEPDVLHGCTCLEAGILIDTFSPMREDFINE

[11] = molecular target: BePL17, PL17 subfamily 2 alginate lyase from Bacteroides eggerthii DSM 20697 (Bacteroides eggerthii DSM 20697); assay: SEC; elution on HiLoad Superdex 200 pg 16/600; data not shown

Q: How did the pKa [1] turn out when “BeKdgF (KdgF-like cupin metalloprotein; annotated Unk3 in PULDB) (Bacteroides eggerthii DSM 20697)” was run?
A: 5.9 ± 0.1

Q: What about the pKa [2] of the same substance?
A: 5.5±0.2

Q: And the pKa [3]?
A: 5.0 ± 0.2

Q: And the pKa [4]?
A: 5.6±0.1 and 5.1±0.2

Q: What about the pKa [5] of the same substance?
A: 5.0±0.2

Q: And the pKa [6]?
A: 5.1±0.1 and 5.2±0.1

Q: And the pKa [7]?
A: 4.9±0.1

Q: What does the source list for “BeKdgF, KdgF-like metalloprotein from Bacteroides eggerthii DSM 20697 (enzyme)”?
A: stoichiometry N [8]: 2; percent of the protein as dimer [9]: 93.5%; percent of the protein as tetramer [9]: 6.5%; stoichiometry N [9]: 4 and 2

Q: With “4-deoxy-β-L-threo-hex-4-enopyranuronic acid [compound 1]” as the substance, how does the Km [10] read?
A: 1140 ± 560 µM

Q: How did the stoichiometry N [11] turn out when “BePL17, PL17 subfamily 2 alginate lyase from Bacteroides eggerthii DSM 20697 (enzyme)” was run?
A: 2
